According to article PMC5701296, “α-Synuclein-Dependent Calcium Entry Underlies Differential Sensitivity of Cultured SN and VTA Dopaminergic Neurons to a Parkinsonian Neurotoxin” (eNeuro, 2017):

Substrate: CN(C)c1ccc(-c2cc[n+](C)cc2)cc1
Test: concentration-dependent fluorescent uptake, Lineweaver-Burk; blocked by nomifensine
Format: cell-based, Mus musculus

B1: DA uptake transporter (DAT) (Mus musculus) (protein)
chain: MSKSKCSVGPMSSVVAPAKEPNAVGPREVELILVKEQNGVQLTNSTLINPPQTPVEVQERETWSKKIDFLLSVIGFAVDLANVWRFPYLCYKNGGGAFLVPYLLFMVIAGMPLFYMELALGQFNREGAAGVWKICPVLKGVGFTVILISFYVGFFYNVIIAWALHYFFSSFTMDLPWIHCNNTWNSPNCSDAHSSNSSDGLGLNDTFGTTPAAEYFERGVLHLHQSRGIDDLGPPRWQLTACLVLVIVLLYFSLWKGVKTSGKVVWITATMPYVVLTALLLRGVTLPGAMDGIRAYLSVDFYRLCEASVWIDAATQVCFSLGVGFGVLIAFSSYNKFTNNCYRDAIITTSINSLTSFSSGFVVFSFLGYMAQKHNVPIRDVATDGPGLIFIIYPEAIATLPLSSAWAAVFFLMLLTLGIDSAMGGMESVITGLVDEFQLLHRHRELFTLGIVLATFLLSLFCVTNGGIYVFTLLDHFAAGTSILFGVLIEAIGVAWFYGVQQFSDDIKQMTGQRPNLYWRLCWKLVSPCFLLYVVVVSIVTFRPPHYGAYIFPDWANALGWIIATSSMAMVPIYATYKFCSLPGSFREKLAYAITPEKDRQLVDRGEVRQFTLRHWLLV
notes: native transporter in cultured primary mouse SN and VTA dopaminergic neurons
B1 was tested, and the Km was 16.9 ± 5.5 µM.
